Assay results: patent US20030108554A1 (published 2003)

Experiments:
[1] = molecular target: T1, GIP130b (human, UniProt Q4L180 1-1128); assay: yeast two-hybrid and three-hybrid (conclusion)
T1 construct: Full length; tested as GAL4 domain fusion in yeast two-hybrid
T1 sequence: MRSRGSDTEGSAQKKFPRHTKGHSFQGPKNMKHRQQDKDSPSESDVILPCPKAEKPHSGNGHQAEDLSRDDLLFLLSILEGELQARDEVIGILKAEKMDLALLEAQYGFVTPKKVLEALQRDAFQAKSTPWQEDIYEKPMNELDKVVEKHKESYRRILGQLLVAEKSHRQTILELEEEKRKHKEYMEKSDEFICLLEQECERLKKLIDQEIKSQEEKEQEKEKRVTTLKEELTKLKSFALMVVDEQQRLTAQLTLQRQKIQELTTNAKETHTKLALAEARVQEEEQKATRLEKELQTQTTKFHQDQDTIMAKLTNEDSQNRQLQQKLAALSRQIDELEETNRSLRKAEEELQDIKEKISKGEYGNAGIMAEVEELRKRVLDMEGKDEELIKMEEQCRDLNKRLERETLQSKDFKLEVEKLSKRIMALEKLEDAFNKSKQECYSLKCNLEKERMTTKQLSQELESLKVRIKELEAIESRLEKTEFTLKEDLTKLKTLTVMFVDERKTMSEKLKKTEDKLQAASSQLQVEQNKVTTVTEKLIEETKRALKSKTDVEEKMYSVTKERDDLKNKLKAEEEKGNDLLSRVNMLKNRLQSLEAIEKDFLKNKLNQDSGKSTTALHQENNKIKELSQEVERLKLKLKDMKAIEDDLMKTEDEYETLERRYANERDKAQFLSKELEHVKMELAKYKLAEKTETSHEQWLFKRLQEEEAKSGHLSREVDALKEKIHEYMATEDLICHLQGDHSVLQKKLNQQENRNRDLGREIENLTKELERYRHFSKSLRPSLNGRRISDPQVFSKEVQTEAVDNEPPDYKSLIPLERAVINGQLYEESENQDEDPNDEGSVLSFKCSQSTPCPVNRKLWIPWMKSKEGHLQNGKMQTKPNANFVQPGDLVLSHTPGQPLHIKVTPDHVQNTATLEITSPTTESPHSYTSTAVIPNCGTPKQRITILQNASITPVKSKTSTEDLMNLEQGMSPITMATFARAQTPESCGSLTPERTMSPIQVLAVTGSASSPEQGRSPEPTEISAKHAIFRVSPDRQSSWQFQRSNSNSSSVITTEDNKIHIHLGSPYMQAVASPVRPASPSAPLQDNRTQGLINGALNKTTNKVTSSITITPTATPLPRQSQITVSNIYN
Procedure: (§1) Accordingly, we have observed with a yeast three-hybrid system that GPBP expression efficiently impairs both I-20 and GIP90 aggregation, and that I-20 and GIP90 efficiently impair GPBP aggregation.
(§2) Deletion mutants were obtained using specific primers and PCR, followed by cloning of the resulting cDNAs in the pGBT9 and pGAD424 vectors. The assays were performed in SFY526 or HF7c Saccharomyces cerevisiae strains, with pGBT9 as GAL4 binding domain vector and pGAD424 as GAL4 activation domain vector, by the lift colony assay procedure. Briefly, the yeast cells were co-transformed with constructs of both binding domain and activation domain vectors, and the co-transformants were selected in medium deficient in both tryptophan and leucine. After five days of incubation at 30° C. the colonies were tested for the expression of β-galactosidase with X-Gal substrate (0.75 mg/ml). […] When the assays were performed with the HF7c strain, the interactions were assessed by the lift colony assay procedure and by growth in medium deficient in histidine, tryptophan and leucine. For yeast three-hybrid system, we used the pBRIDGE vector, which allows the conditional expression of a third protein apart from the usual GAL4 binding and activation domain-fusion proteins of the two-hybrid system. In this case, the expression of GPBP or I-20 or GIP90 was driven by Met25 promoter, active in absence of methionine. In these experiments, the transformed SFY526 cells were plated in medium deficient in tryptophan, leucine and methionine, and subjected to the colony lift assay after five days at 30° C. In the case of the strain HF7c the colonies grown in the cited plates were streaked on medium with the additional deficiency of histidine.

[2] = molecular target: T2, GIP130a (human, UniProt Q4L180 1-1135); assay: yeast two-hybrid and three-hybrid (conclusion)
T2 construct: Full length; tested as GAL4 domain fusion in yeast two-hybrid
T2 sequence: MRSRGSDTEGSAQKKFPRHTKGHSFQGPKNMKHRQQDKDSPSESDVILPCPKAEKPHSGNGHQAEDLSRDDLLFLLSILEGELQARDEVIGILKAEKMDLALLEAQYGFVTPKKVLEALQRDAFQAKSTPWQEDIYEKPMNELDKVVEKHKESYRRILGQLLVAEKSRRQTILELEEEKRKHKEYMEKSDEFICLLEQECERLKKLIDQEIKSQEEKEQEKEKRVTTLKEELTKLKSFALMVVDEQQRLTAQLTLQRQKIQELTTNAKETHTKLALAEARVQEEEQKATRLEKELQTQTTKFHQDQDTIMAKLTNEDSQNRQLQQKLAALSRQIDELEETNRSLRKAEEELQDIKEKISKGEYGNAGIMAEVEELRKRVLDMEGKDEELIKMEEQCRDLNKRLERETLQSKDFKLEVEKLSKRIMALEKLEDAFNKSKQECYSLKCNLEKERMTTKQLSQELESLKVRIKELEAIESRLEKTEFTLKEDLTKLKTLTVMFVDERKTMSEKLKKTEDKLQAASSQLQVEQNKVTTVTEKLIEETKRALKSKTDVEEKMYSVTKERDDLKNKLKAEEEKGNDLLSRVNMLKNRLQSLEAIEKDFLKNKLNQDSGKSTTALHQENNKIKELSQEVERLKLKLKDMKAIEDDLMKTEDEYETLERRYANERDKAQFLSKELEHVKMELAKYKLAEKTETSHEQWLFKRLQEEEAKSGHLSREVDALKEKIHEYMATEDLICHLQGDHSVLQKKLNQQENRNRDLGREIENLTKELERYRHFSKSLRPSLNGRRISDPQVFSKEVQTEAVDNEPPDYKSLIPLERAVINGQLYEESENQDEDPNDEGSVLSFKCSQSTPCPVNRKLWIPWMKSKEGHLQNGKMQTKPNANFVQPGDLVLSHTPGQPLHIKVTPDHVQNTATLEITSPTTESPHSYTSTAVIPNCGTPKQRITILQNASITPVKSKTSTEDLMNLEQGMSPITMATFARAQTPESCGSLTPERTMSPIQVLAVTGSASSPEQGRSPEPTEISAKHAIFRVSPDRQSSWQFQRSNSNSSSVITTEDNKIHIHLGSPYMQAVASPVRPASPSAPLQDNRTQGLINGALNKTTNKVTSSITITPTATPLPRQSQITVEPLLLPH
Procedure: as §1, §2

binding result [1]: binds
binding result [2]: binds
B1: Goodpasture antigen binding protein (GPBP) (enzyme, UniProt Q9Y5P4 1-624, looked up)
chain: MSDNQSWNSSGSEEDPETESGPPVERCGVLSKWTNYIHGWQDRWVVLKNNALSYYKSEDETEYGCRGSICLSKAVITPHDFDECRFDISVNDSVWYLRAQDPDHRQQWIDAIEQHKTESGYGSESSLRRHGSMVSLVSGASGYSATSTSSFKKGHSLREKLAEMETFRDILCRQVDTLQKYFDACADAVSKDELQRDKVVEDDEDDFPTTRSDGDFLHSTNGNKEKLFPHVTPKGINGIDFKGEAITFKATTAGILATLSHCIELMVKREDSWQKRLDKETEKKRRTEEAYKNAMTELKKKSHFGGPDYEEGPNSLINEEEFFDAVEAALDRQDKIEEQSQSEKVRLHWPTSLPSGDAFSSVGTHRFVQKPYSRSSSMSSIDLVSASDDVHRFSSQVEEMVQNHMTYSLQDVGGDANWQLVVEEGEMKVYRREVEENGIVLDPLKATHAVKGVTGHEVCNYFWNVDVRNDWETTIENFHVVETLADNAIIIYQTHKRVWPASQRDVLYLSVIRKIPALTENDPETWIVCNFSVDHDSAPLNNRCVRAKINVAMICQTLVSPPEGNQEISRDNILCKITYVANVNPGGWAPASVLRAVAKREYPKFLKRFTSYVQEKTAGKPILF
notes: Protein kinase; Fusion parts are not written as pieces
